Reference: US20230340128A1 (Xencor, published 2023)

Experiments:
[1] = molecular target: T1, human mesothelin (MSLN) (human, UniProt Q13421 296-580, limits assumed); experiment: KD quoted in the FIG. 25 legend; Octet (BLI) per FIGS. 20-21
T1 construct: Antigen of the Octet KD values

[2] = molecular target: T1, human mesothelin (MSLN); experiment: BLI (Octet), bsAb in 1+1 Fab-scFv-Fc format
[3] = molecular target: T1, human mesothelin (MSLN); experiment: label in the legend box: nominal affinity of the MSLN binding domain (paragraph 422 calls such label values KD); method not stated on the sheet
[4] = molecular target: T2, human CD28 (human, UniProt P10747 19-152, limits assumed); experiment: label in the legend box: nominal affinity of the CD28 binding domain (paragraph 422 calls such label values KD); method not stated on the sheet
T2 construct: also called Cluster of Differentiation 28; Tp44

Kd [1] [nM]	Kd [3] [nM]	Kd [4] [nM]	Binder	also measured
~12.8	–	–	XENP32563 (bispecific antibody) chain 1: QVQLVQSGAEVKKPGASVKVSCKASGYTFTSYWMHWVRQAPGQGLEWMGMIHPNSDNTIYYEKFQGRVTMTVDKSISTAYMELSRLRSDDTAVYYCAIIITPVVPKFDYWGQGTLVTVSSASTKGPSVFPLAPSSKSTSGGTAALGCLVKDYFPEPVTVSWNSGALTSGVHTFPAVLQSSGLYSLSSVVTVPSSSLGTQTYICNVNHKPSDTKVDKKVEPKSCDKTHTCPPCPAPPVAGPSVFLFPPKPKDTLMISRTPEVTCVVVDVKHEDPEVKFNWYVDGVEVHNAKTKPREEEYNSTYRVVSVLTVLHQDWLNGKEYKCKVSNKALPAPIEKTISKAKGQPREPQVYTLPPSREEMTKNQVSLTCDVSGFYPSDIAVEWESDGQPENNYKTTPPVLDSDGSFFLYSKLTVDKSRWEQGDVFSCSVMHEALHNHYTQKSLSLSPGK chain 2: not shown chain 3: DIVMTQSPDSLAVSLGERATINCKASHDVGTYVAWYQQKPGQSPKLLIYWASTRHTGVPDRFTGSGSGTDFTLTISSLQAEDVAVYFCQQYSSYPLTFGAGTKLEIKRTVAAPSVFIFPPSDEQLKSGTASVVCLLNNFYPREAKVQWKVDNALQSGNSQESVTEQDSKDSTYSLSSTLTLSKADYEKHKVYACEVTHQGLSSPVTKSFNRGEC	Kd [2]: 12.8 nM; Response [2]: 0.898; koff [2]: 0.00672 s⁻¹; kon [2]: 527000 M⁻¹ s⁻¹
–	9	180	XENP44477 (bispecific antibody, also called XENP44477 MSLN (9 nM) x CD28 (180 nM) 2+1 Fab2-Fc x scFv-Fc) heavy: QVQLVQSGAEVKKPGASVKVSCKASGYTFTSYWMHWVRQAPGQGLEWMGWIHPNSDNTIYYEKFQGRVTMTVDKSISTAYMELSRLRSDDTAVYYCAIIITPVVPKFDYWGQGTLVTVSSASTKGPSVFPLAPSSKSTSGGTAALGCLVKDYFPEPVTVSWNSGALTSGVHTFPAVLQSSGLYSLSSVVTVPSSSLGTQTYICNVNHKPSDTKVDKKVEPKSCGGGGSGGGGSQVQLVQSGAEVKKPGASVKVSCKASGYTFTSYWMHWVRQAPGQGLEWMGWIHPNSDNTIYYEKFQGRVTMTVDKSISTAYMELSRLRSDDTAVYYCAIIITPVVPKFDYWGQGTLVTVSSASTKGPSVFPLAPSSKSTSGGTAALGCLVKDYFPEPVTVSWNSGALTSGVHTFPAVLQSSGLYSLSSVVTVPSSSLGTQTYICNVNHKPSDTKVDKKVEPKSCDKTHTCPPCPAPPVAGPSVFLFPPKPKDTLMISRTPEVTCVVVDVKHEDPEVKFNWYVDGVEVHNAKTKPREEEYNSTYRVVSVLTVLHQDWLNGKEYKCKVSNKALPAPIEKTISKAKGQPREPQVYTLPPSREEMTKNQVSLTCDVSGFYPSDIAVEWESDGQPENNYKTTPPVLDSDGSFFLYSKLTVDKSRWEQGDVFSCSVLHEALHSHYTQKSLSLSPGK scFv-Fc: not shown light 1: DIVMTQSPDSLAVSLGERATINCKASHDVGTSVAWYQQKPGQSPKLLIYWASTRHTGVPDRFTGSGSGTDFTLTISSLQAEDVAVYFCQQYSSYPLTFGAGTKLEIKRTVAAPSVFIFPPSDEQLKSGTASVVCLLNNFYPREAKVQWKVDNALQSGNSQESVTEQDSKDSTYSLSSTLTLSKADYEKHKVYACEVTHQGLSSPVTKSFNRGEC light 2: DIVMTQSPDSLAVSLGERATINCKASHDVGTSVAWYQQKPGQSPKLLIYWASTRHTGVPDRFTGSGSGTDFTLTISSLQAEDVAVYFCQQYSSYPLTFGAGTKLEIKRTVAAPSVFIFPPSDEQLKSGTASVVCLLNNFYPREAKVQWKVDNALQSGNSQESVTEQDSKDSTYSLSSTLTLSKADYEKHKVYACEVTHQGLSSPVTKSFNRGEC	–
10.2	–	–	XENP32948 (bispecific antibody) chain 1: QVQLVQSGAEVKKPGASVKVSCKASGYTFTSYWMHWVRQAPGQGLEWMGMIHPNSDNTIYYQKFQGRVTMTVDKSISTAYMELSRLRSDDTAVYYCAIIITPVVPKFDYWGQGTLVTVSSASTKGPSVFPLAPSSKSTSGGTAALGCLVKDYFPEPVTVSWNSGALTSGVHTFPAVLQSSGLYSLSSVVTVPSSSLGTQTYICNVNHKPSDTKVDKKVEPKSCDKTHTCPPCPAPPVAGPSVFLFPPKPKDTLMISRTPEVTCVVVDVKHEDPEVKFNWYVDGVEVHNAKTKPREEEYNSTYRVVSVLTVLHQDWLNGKEYKCKVSNKALPAPIEKTISKAKGQPREPQVYTLPPSREEMTKNQVSLTCDVSGFYPSDIAVEWESDGQPENNYKTTPPVLDSDGSFFLYSKLTVDKSRWEQGDVFSCSVMHEALHNHYTQKSLSLSPGK chain 2: QVQLVQSGAEVKKPGASVKVSCKASGYTFTSYWMHWVRQAPGQGLEWMGMIHPNSDNTIYYQKFQGRVTMTVDKSISTAYMELSRLRSDDTAVYYCAIIITPVVPKFDYWGQGTLVTVSSASTKGPSVFPLAPSSKSTSGGTAALGCLVKDYFPEPVTVSWNSGALTSGVHTFPAVLQSSGLYSLSSVVTVPSSSLGTQTYICNVNHKPSNTKVDKKVEPKSCGGGGSGGGGSQAVVTQEPSLTVSPGGTVTLTCGSSTGAVTTSNYANWVQQKPGKSPRGLIGGTNKRAPGVPARFSGSLLGGKAALTISGAQPEDEADYYCALWYSNHWVFGGGTKLTVLGKPGSGKPGSGKPGSGKPGSEVQLVESGGGLVQPGGSLRLSCAASGFTFSTYAMNWVRQAPGKGLEWVGRIRSKANNYATYYADSVKGRFTISRDDSKNTLYLQMNSLRAEDTAVYYCVRHGNFGDSYVSWFAYWGQGTLVTVSSGGGGSGGGGSKTHTCPPCPAPPVAGPSVFLFPPKPKDTLMISRTPEVTCVVVDVKHEDPEVKFNWYVDGVEVHNAKTKPREEQYNSTYRVVSVLTVLHQDWLNGKEYKCKVSNKALPAPIEKTISKAKGQPREPQVYTLPPSREQMTKNQVKLTCLVKGFYPSDIAVEWESNGQPENNYKTTPPVLDSDGSFFLYSKLTVDKSRWQQGNVFSCSVMHEALHNHYTQKSLSLSPGK chain 3: DIVMTQSPDSLAVSLGERATINCKASHDVGTSVAWYQQKPGQSPKLLIYWASTRHTGVPDRFTGSGSGTDFTLTISSLQAEDVAVYFCQQYYSYPLTFGAGTKLEIKRTVAAPSVFIFPPSDEQLKSGTASVVCLLNNFYPREAKVQWKVDNALQSGNSQESVTEQDSKDSTYSLSSTLTLSKADYEKHKVYACEVTHQGLSSPVTKSFNRGEC	–
–	9	180	XENP44471 (bispecific antibody, also called XENP44471 MSLN (9 nM) x CD28 (180 nM) 2+1 Fab2-scFv-Fc) heavy 1: QVQLVQSGAEVKKPGASVKVSCKASGYTFTSYWMHWVRQAPGQGLEWMGWIHPNSDNTIYYEKFQGRVTMTVDKSISTAYMELSRLRSDDTAVYYCAIIITPVVPKFDYWGQGTLVTVSSASTKGPSVFPLAPSSKSTSGGTAALGCLVKDYFPEPVTVSWNSGALTSGVHTFPAVLQSSGLYSLSSVVTVPSSSLGTQTYICNVNHKPSDTKVDKKVEPKSCDKTHTCPPCPAPPVAGPSVFLFPPKPKDTLMISRTPEVTCVVVDVKHEDPEVKFNWYVDGVEVHNAKTKPREEEYNSTYRVVSVLTVLHQDWLNGKEYKCKVSNKALPAPIEKTISKAKGQPREPQVYTLPPSREEMTKNQVSLTCDVSGFYPSDIAVEWESDGQPENNYKTTPPVLDSDGSFFLYSKLTVDKSRWEQGDVFSCSVLHEALHSHYTQKSLSLSPGK heavy 2: not shown light 1: DIVMTQSPDSLAVSLGERATINCKASHDVGTSVAWYQQKPGQSPKLLIYWASTRHTGVPDRFTGSGSGTDFTLTISSLQAEDVAVYFCQQYSSYPLTFGAGTKLEIKRTVAAPSVFIFPPSDEQLKSGTASVVCLLNNFYPREAKVQWKVDNALQSGNSQESVTEQDSKDSTYSLSSTLTLSKADYEKHKVYACEVTHQGLSSPVTKSFNRGEC light 2: DIVMTQSPDSLAVSLGERATINCKASHDVGTSVAWYQQKPGQSPKLLIYWASTRHTGVPDRFTGSGSGTDFTLTISSLQAEDVAVYFCQQYSSYPLTFGAGTKLEIKRTVAAPSVFIFPPSDEQLKSGTASVVCLLNNFYPREAKVQWKVDNALQSGNSQESVTEQDSKDSTYSLSSTLTLSKADYEKHKVYACEVTHQGLSSPVTKSFNRGEC	–
–	90	180	XENP44473 (bispecific antibody, also called XENP44473 MSLN (90 nM) x CD28 (180 nM) 2+1 Fab2-scFv-Fc) heavy 1: QVQLVQSGAEVKKPGASVKVSCKASGYTFTSYWMHWVRQAPGQGLEWMGWIHPNSDNTIYYEKFQGRVTMTVDKSISTAYMELSRLRSDDTAVYYCAIIITPVVPKFDYWGQGTLVTVSSASTKGPSVFPLAPSSKSTSGGTAALGCLVKDYFPEPVTVSWNSGALTSGVHTFPAVLQSSGLYSLSSVVTVPSSSLGTQTYICNVNHKPSDTKVDKKVEPKSCDKTHTCPPCPAPPVAGPSVFLFPPKPKDTLMISRTPEVTCVVVDVKHEDPEVKFNWYVDGVEVHNAKTKPREEEYNSTYRVVSVLTVLHQDWLNGKEYKCKVSNKALPAPIEKTISKAKGQPREPQVYTLPPSREEMTKNQVSLTCDVSGFYPSDIAVEWESDGQPENNYKTTPPVLDSDGSFFLYSKLTVDKSRWEQGDVFSCSVLHEALHSHYTQKSLSLSPGK heavy 2: not shown light 1: DIVMTQSPDSLAVSLGERATINCKASHDVGQSVAWYQQKPGQSPKLLIYWASTRHTGVPDRFTGSGSGTDFTLTISSLQAEDVAVYFCQQYSSYPLTFGAGTKLEIKRTVAAPSVFIFPPSDEQLKSGTASVVCLLNNFYPREAKVQWKVDNALQSGNSQESVTEQDSKDSTYSLSSTLTLSKADYEKHKVYACEVTHQGLSSPVTKSFNRGEC light 2: DIVMTQSPDSLAVSLGERATINCKASHDVGQSVAWYQQKPGQSPKLLIYWASTRHTGVPDRFTGSGSGTDFTLTISSLQAEDVAVYFCQQYSSYPLTFGAGTKLEIKRTVAAPSVFIFPPSDEQLKSGTASVVCLLNNFYPREAKVQWKVDNALQSGNSQESVTEQDSKDSTYSLSSTLTLSKADYEKHKVYACEVTHQGLSSPVTKSFNRGEC	–
